The assay concerns the target T1, His6-Dsn1 (subunit of the recombinant Mis12 complex) (human, UniProt Q9H410 1-356).
T1 sequence (looked up): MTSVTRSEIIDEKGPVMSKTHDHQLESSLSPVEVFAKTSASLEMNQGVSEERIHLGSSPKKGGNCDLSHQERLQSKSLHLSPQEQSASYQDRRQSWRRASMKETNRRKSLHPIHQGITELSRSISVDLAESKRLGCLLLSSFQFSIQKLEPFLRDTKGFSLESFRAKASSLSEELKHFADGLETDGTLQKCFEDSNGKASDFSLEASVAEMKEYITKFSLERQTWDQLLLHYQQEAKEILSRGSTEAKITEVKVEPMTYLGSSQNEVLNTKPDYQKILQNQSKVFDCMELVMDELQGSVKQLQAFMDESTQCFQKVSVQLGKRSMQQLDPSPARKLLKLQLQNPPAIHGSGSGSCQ
The assay is described as follows: co-sedimentation.

B1: Mis12 (subunit of the recombinant Mis12 complex) (natural protein, human, UniProt Q9H081 1-205, looked up)
chain: MSVDPMTYEAQFFGFTPQTCMLRIYIAFQDYLFEVMQAVEQVILKKLDGIPDCDISPVQIRKCTEKFLCFMKGHFDNLFSKMEQLFLQLILRIPSNILLPEDKCKETPYSEEDFQHLQKEIEQLQEKYKTELCTKQALLAELEEQKIVQAKLKQTLTFFDELHNVGRDHGTSDFRESLVSLVQNSRKLQNIRDNVEKESKRLKIS
Turning to B1, the binding result is “binds”.

B2: Nsl1 (subunit of the recombinant Mis12 complex) (natural protein, human, UniProt Q96IY1 1-281, looked up)
chain: MAGSPELVVLDPPWDKELAAGTESQALVSATPREDFRVRCTSKRAVTEMLQLCGRFVQKLGDALPEEIREPALRDAQWTFESAVQENISINGQAWQEASDNCFMDSDIKVLEDQFDEIIVDIATKRKQYPRKILECVIKTIKAKQEILKQYHPVVHPLDLKYDPDPAPHMENLKCRGETVAKEISEAMKSLPALIEQGEGFSQVLRMQPVIHLQRIHQEVFSSCHRKPDAKPENFITQIETTPTETASRKTSDMVLKRKQTKDCPQRKWYPLRPKKINLDT
Take B2: the binding result is reported as “binds”.

B3: Nnf1 (subunit of the recombinant Mis12 complex) (natural protein, human, UniProt Q6P1K2 1-205, looked up)
chain: MAEASSANLGSGCEEKRHEGSSSESVPPGTTISRVKLLDTMVDTFLQKLVAAGSYQRFTDCYKCFYQLQPAMTQQIYDKFIAQLQTSIREEISDIKEEGNLEAVLNALDKIVEEGKVRKEPAWRPSGIPEKDLHSVMAPYFLQQRDTLRRHVQKQEAENQQLADAVLAGRRQVEELQLQVQAQQQAWQALHREQRELVAVLREPE
In the case of B3, the binding result was “binds”.

Source of the values: paper PMC2856898 (The Journal of Cell Biology, 2010).
